Source: article PMC3032424

Biological target: mouse hemoglobin (mouse) (UniProt P01942)
Assay: BLI

recombinant IsdB (from UniProt A6QG30 41-613) (receptor)
Kd: 980 nM
